Experimental findings from paper PMC8084935 (Nature chemical biology, 2021) are described below.

Positions count from the first letter of the chain named. Names and notes keep the numbering of the source. *: point of attachment. COSH = C-terminal thiocarboxylate, S*

The target of series [1] is MtYcaO (YcaO from Methanothermobacter sp. CaT2), MBP-His tag cut in the assay mixture (Methanothermobacter sp. CaT2). Description: fluorescence polarisation. A general note: Polarisation of emitted light reports the rotation of a fluorescent probe.
The series “native MS” concerns the molecule itself. Description: native MS.

B1: MtTfuA-E67A (enzyme)
chain: MHGKKIIIFTGPSLSHTEASSILEAEYRPPVRRGDIQEAMKENPDIIGIIDGVFHQSPAVGHRAIIDAIRRGVKVVGGASMGALRASELSDLGMVGVGRIFRSYLEGEIESDDDVAVAFNPETLEPLSDSLVSIEFNLKRALRRGVIREDDFRKLMNTARNLFYPLRNYRRILHESGIPDDVKESLRSFLESEGRDLKREDALEVIRHIKRLAYTE
For orientation: EC50 means the concentration that produces a half-maximal response. As for B1, the EC50 in series [1] was determined as 4.9 µM.

B2: MtTfuA-S16A (enzyme)
chain: B1 chain with S13A, A64E
Regarding B2, the EC50 in series [1] came to 5.4 µM.

B3: MtTfuA-D203A (enzyme)
chain: B1 chain with A64E, D196A
With B3, the EC50 in series [1] was found to be 2.9 µM.

B4: MtTfuA-Y107A (enzyme)
chain: B1 chain with A64E, Y104A
In the case of B4, the EC50 in series [1] is above 30 µM.

B5: MtTfuA-D208N (enzyme)
chain: B1 chain with A64E, D201N
As for B5, in series [1], the EC50 stood at 3.9 µM.

B6: MtTfuA-S83A (enzyme)
chain: B1 chain with A64E, S80A
With B6, in series [1], the concentration giving a half-maximal response (EC50) was 4.1 µM.

B7: MtTfuA-F57A (enzyme)
chain: B1 chain with F54A, A64E
On to B7, for which the EC50 in series [1] was 3.8 µM.

B8: MtTfuA-D115A (enzyme)
chain: B1 chain with A64E, D112A
On to B8, for which the EC50 in series [1] was above 30 µM.

B9: MtTfuA-E91Q (enzyme)
chain: B1 chain with A64E, E88Q
Consider B9, for which, in series [1], the EC50 was above 30 µM.

B10: MtTfuA-M84A (enzyme)
chain: B1 chain with A64E, M81A
In the case of B10, in series [1], the EC50 amounted to 3.2 µM.

B11: MtTfuA-L87A (enzyme)
chain: B1 chain with A64E, L84A
With B11, the EC50 in series [1] was above 30 µM.

B12: MtTfuA-R170A (enzyme)
chain: B1 chain with A64E, R167A
Consider B12, for which the 50% effective concentration (EC50) in series [1] was above 30 µM.

B13: MtTfuA-H65A (enzyme)
chain: B1 chain with H62A, A64E
Regarding B13, the EC50 in series [1] was above 30 µM.

B14: MtTfuA-K205M (enzyme)
chain: B1 chain with A64E, K198M
Consider B14, for which the EC50 in series [1] came to 1.1 µM.

B15: MtTfuA-R206A (enzyme)
chain: B1 chain with A64E, R199A
In the case of B15, the EC50 in series [1] was 3.1 µM.

B16: MtTfuA-D54A (enzyme)
chain: B1 chain with D51A, A64E
Turning to B16, in series [1], the EC50 is above 30 µM.

B17: MtTfuA-R88A (enzyme)
chain: B1 chain with A64E, R85A
As for B17, the EC50 in series [1] was above 30 µM.

B18: MtTfuA-V118A (enzyme)
chain: B1 chain with A64E, V115A
In the case of B18, the EC50 in series [1] is above 30 µM.

B19: MtTfuA-E91D (enzyme)
chain: B1 chain with A64E, E88D
Turning to B19, in series [1], the EC50 is 2.1 µM.

B20: MtThiS-COSH (thiocarboxylated ThiS from Methanothermobacter sp. CaT2) (natural protein)
chain: MVIGMKFTVITDDGKKILESGAPRRIKDVLGELEIPIETVVVKKNGEIVIEEEEIFDGDIIEVIRVIYGG-{COSH}
The stoichiometry N is the number of molecules, sites or subunits per partner or assembly. As for B20, in “native MS”, the “stoichiometry N” value was found to be 2.
